{"source": "FireProtDB (doi:10.1016/s0022-2836(02)00737-4)", "parents": {"B1": {"name": "Tryptophan synthase alpha chain, P0A877 (parent)", "chain": "MERYESLFAQLKERKEGAFVPFVTLGDPGIEQSLKIIDTLIEAGADALELGIPFSDPLADGPTIQNATLRAFAAGVTPAQCFEMLALIRQKHPTIPIGLLMYANLVFNKGIDEFYAQCEKVGVDSVLVADVPVEESAPFRQAALRHNVAPIFICPPNADDDLLRQIASYGRGYTYLLSRAGVTGAENRAALPLNHLVAKLKEYNAAPPLQGFGISAPDQVKAAIDAGAAGAISGSAIVKIIEQHINEPEKMLAALKVFVQPMKAATRS"}}, "variants_of": "B1", "settings": "Escherichia coli (strain K12); pH 7.8; 25 °C; Urea; CD; potassium phosphate 10 mM; transition: 3; structure 1WQ5; whole UniProt chain shown", "note": "Several values for one entry are separate records, joined by “and”; a condition that tells them apart may be missing. Equal entries are not always repeated.", "data": [{"variant": "P28A", "values": [{"measurement": "denaturant m value", "value": "1.48 kcal/mol/M and 1.04 kcal/mol/M"}, {"measurement": "denaturant midpoint (higher = more stable)", "value": "1.36 M and 3.66 M"}, {"measurement": "unfolding free energy", "value": "2.01 kcal/mol and 3.81 kcal/mol"}]}, {"variant": "P28G", "values": [{"measurement": "denaturant m value", "value": "2.15 kcal/mol/M and 1.18 kcal/mol/M"}, {"measurement": "denaturant midpoint (higher = more stable)", "value": "2.08 M and 4.1 M"}, {"measurement": "unfolding free energy", "value": "4.47 kcal/mol and 4.84 kcal/mol"}]}]}
